T1: h α2B adr (Homo sapiens, UniProt P18089)
T1 construct: expressed in transfected cells; host or cells: COS-7
T1 sequence (P18089 1-450): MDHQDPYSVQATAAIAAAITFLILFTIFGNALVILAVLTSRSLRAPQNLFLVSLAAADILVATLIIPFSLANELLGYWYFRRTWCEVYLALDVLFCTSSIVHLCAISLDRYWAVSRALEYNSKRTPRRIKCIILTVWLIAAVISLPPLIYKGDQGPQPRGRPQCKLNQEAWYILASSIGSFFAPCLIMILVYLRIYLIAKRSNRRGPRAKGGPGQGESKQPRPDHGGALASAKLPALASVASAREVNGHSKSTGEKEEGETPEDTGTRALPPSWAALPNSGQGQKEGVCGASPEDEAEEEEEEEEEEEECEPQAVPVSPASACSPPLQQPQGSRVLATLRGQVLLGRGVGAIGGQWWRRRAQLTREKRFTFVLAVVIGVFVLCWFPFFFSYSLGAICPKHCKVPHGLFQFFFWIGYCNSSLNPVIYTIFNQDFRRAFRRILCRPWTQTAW

T2: r GALR3 (Rattus norvegicus, UniProt O88626)
T2 sequence (O88626 1-370): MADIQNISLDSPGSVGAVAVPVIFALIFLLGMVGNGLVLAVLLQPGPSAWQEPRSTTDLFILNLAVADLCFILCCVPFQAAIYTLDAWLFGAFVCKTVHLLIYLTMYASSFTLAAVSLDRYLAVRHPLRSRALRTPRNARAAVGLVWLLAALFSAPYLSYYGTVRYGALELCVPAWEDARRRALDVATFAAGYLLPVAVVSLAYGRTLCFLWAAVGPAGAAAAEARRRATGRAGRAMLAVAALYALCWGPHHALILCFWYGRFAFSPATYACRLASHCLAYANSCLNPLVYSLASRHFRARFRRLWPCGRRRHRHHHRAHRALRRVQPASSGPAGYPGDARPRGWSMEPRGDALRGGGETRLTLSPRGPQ

T3: h α2A adr (Homo sapiens, UniProt P08913)
T3 construct: expressed in transfected cells; host or cells: COS-7
T3 sequence (P08913 1-465): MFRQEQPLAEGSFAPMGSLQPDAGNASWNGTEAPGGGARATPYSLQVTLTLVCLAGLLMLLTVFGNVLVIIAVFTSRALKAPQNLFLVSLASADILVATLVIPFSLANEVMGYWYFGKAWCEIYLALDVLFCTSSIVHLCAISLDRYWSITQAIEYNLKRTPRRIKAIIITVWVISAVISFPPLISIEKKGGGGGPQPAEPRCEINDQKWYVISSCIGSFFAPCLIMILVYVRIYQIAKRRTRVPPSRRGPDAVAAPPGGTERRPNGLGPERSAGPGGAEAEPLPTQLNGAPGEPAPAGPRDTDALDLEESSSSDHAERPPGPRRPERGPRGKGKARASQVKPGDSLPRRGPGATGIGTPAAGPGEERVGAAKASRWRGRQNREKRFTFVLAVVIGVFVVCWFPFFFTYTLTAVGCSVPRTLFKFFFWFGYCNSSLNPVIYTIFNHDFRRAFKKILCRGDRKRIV

T4: h 5HT1F (Homo sapiens, UniProt P30939)
T4 sequence (P30939 1-366): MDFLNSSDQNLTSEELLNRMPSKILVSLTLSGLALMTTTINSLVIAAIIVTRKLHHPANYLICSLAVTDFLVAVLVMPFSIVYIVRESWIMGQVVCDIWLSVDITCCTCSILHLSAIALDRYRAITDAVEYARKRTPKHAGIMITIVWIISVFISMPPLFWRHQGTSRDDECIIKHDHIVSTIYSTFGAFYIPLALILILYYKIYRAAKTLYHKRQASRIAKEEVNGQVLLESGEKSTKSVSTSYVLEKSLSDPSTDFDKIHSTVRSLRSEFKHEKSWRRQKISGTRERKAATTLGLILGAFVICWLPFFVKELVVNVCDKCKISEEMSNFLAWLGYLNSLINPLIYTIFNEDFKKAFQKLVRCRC


Key:
Test in all cases: Calcium mobilization (FLIPR, Fluo-3) in transfected COS-7 cells
Format in all cases: cell-based
h α2B adr = target: T1, h α2B adr; conditions: h α2B adr + chimera in COS-7; agonist NE, max 100 μM
Method in brief: (§1)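 Calcium responses to agonist were measured in COS-7 cells co-expressing each receptor with Gαq/z and/or Gαq/s chimeras, using Fluo-3 dye and FLIPR detection over 3 min at room temperature.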

h 5HT1E = h 5HT1E (Homo sapiens, UniProt P28566); conditions: h 5HT1E + chimera in COS-7; agonist 5HT, max 100 μM
h 5HT1E, sequence (P28566 whole entry): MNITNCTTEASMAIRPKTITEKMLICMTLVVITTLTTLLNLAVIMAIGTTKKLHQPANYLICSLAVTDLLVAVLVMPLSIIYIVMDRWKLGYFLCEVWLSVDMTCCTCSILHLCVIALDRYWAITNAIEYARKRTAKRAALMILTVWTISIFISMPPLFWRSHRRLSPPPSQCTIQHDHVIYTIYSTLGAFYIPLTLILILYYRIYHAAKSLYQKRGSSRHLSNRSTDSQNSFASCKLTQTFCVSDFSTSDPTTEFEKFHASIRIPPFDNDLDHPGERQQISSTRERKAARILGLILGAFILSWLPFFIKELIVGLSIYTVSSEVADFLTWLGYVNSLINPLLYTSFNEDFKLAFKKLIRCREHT
Method in brief: as §1

r GALR3 = target: T2, r GALR3; conditions: r GALR3 + chimera in COS-7; agonist GAL, max 10 μM
Method in brief: as §1

h α2A adr = target: T3, h α2A adr; conditions: h α2A adr + chimera in COS-7; agonist NE, max 100 μM
Method in brief: as §1

h 5HT1F = target: T4, h 5HT1F; conditions: h 5HT1F + chimera in COS-7; agonist 5HT, max 100 μM
Method in brief: as §1

| Molecule | MAXIMAL SIGNAL (FLUORESCENCE UNITS) (h α2B adr) | MAXIMAL SIGNAL (FLUORESCENCE UNITS) (h 5HT1E) | MAXIMAL SIGNAL (FLUORESCENCE UNITS) (r GALR3) | MAXIMAL SIGNAL (FLUORESCENCE UNITS) (h α2A adr) | MAXIMAL SIGNAL (FLUORESCENCE UNITS) (h 5HT1F) |
| --- | --- | --- | --- | --- | --- |
| cGαq/z5: chimeric Gα subunit: C-terminal final 5 amino acids of C. elegans Gαq replaced with those of hGαz (SEQ ID NO: 1) (protein, C. elegans) MACCLSEEAREQKRINQEIEKQLQRDKRNARRELKLLLLGTGESGKSTFIKQMRIIHGQGYSEEDKRAHIRLVYQNVFMAIQSMIRAMDTLDIKFGNESEELQEKAAVVREVDFESVTSFEEPYVSYIKELWEDSGIQECYDRRREYQLTDSAKYYLSDLRRLAVPDYLPTEQDILRVRVPTTGIIEYPFDLEQIIFRMVDVGGQRSERRKWIHCFENVTSIMFLVALSEYDQVLVECDNENRMEESKALFRTIITYPWFTNSSVILFLNKKDLLEEKILYSHLADYFPEYDGPPRDPIAAREFILKMFVDLNPDADKIIYSHFTCATDTENIRFVFAAVKDTILQHNLKYIGLC | 4983 fluorescence units | 229 fluorescence units | 2298 fluorescence units | 7575 fluorescence units | 243 fluorescence units |
| cGαq/z9: C. elegans Gαq with Gαz portion of the C-terminal tail extended to 9 amino acids (SEQ ID NO: 2) (protein, C. elegans) MACCLSEEAREQKRINQEIEKQLQRDKRNARRELKLLLLGTGESGKSTFIKQMRIIHGQGYSEEDKRAHIRLVYQNVFMAIQSMIRAMDTLDIKFGNESEELQEKAAVVREVDFESVTSFEEPYVSYIKELWEDSGIQECYDRRREYQLTDSAKYYLSDLRRLAVPDYLPTEQDILRVRVPTTGIIEYPFDLEQIIFRMVDVGGQRSERRKWIHCFENVTSIMFLVALSEYDQVLVECDNENRMEESKALFRTIITYPWFTNSSVILFLNKKDLLEEKILYSHLADYFPEYDGPPRDPIAAREFILKMFVDLNPDADKIIYSHFTCATDTENIRFVFAAVKDTILQNNLKYIGLC | 5138 fluorescence units | 238 fluorescence units | 2971 fluorescence units | 3040 fluorescence units | 384 fluorescence units |
